From PMC6704128, “Binding of the protein ICln to α-integrin contributes to the activation of ICl_(swell) current” (Scientific Reports, 2019)

What was measured:
[1] = target: T1, αIIbs-YFP (transmembrane and intracellular portion, amino acids 987-1039, of the human integrin αIIb chain, … (human, UniProt P08514-1 987-1039)); test: FRET or BRET; acceptor photobleaching; HEK293 Phoenix cells; FRET efficiency in 4-5 plasma membrane ROIs of each cell; details: partners not purified
T1 construct: integrin αIIb chain, human, amino acids 987-1039 (transmembrane and intracellular portion); numbers count on NCBI NP_000410.2; The methods say 'YFP was fused to the Ct of ICln'; also called αIIb-short; αIIb short; source: NIH-3T3 fibroblasts or HEK293 Phoenix cells, transiently transfected (pEYFP-N1), in cells; not shown: YFP, C-terminal, kept
T1 sequence (P08514 987-1039): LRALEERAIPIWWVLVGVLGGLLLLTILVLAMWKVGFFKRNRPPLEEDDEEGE

[2] = target: T1, αIIbs-YFP (transmembrane and …); test: FRET or BRET; acceptor photobleaching; living NIH-3T3 fibroblasts in isotonic solution; CFP donor, YFP acceptor; FRET efficiency in three plasma membrane ROIs of each cell; details: partners not purified
[3] = target: T2, TcICln (truncated Canis familiaris ICln, ICln159X), N-terminal His6-tagged (Canis familiaris, UniProt P35521 1-158); test: NMR titration; 1H-15N HSQC of 15N-labelled ICln (0.8 mM) without and with the integrin peptide (equimolar amount for TcICln); 50 mM K2HPO4, pH 6.6, 90% H2O/10% D2O, 25 °C, 800 MHz; details: both partners purified
T2 construct: ICln, Canis familiaris, truncation mutant ICln159X lacking the C-terminal part (stop at position 159); pleckstrin homology domain-like fold; NCBI NP_001003288.1; Uniformly 15N-labelled; The last residue (158) is worked out from the name ICln159X; also called truncated form of cICln; source: E. coli BL21(DE3), purified (IMAC HisTrap, Superdex 75)
T2 sequence (looked up): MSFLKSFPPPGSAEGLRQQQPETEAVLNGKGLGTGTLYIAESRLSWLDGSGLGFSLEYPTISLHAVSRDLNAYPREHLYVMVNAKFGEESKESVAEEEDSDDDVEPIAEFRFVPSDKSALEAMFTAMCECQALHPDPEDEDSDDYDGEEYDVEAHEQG

B1: CFP-ICln (Canis familiaris ICln, wild type, CFP fused to the N-terminus) (natural protein, UniProt P35521 1-235, looked up)
chain: MSFLKSFPPPGSAEGLRQQQPETEAVLNGKGLGTGTLYIAESRLSWLDGSGLGFSLEYPTISLHAVSRDLNAYPREHLYVMVNAKFGEESKESVAEEEDSDDDVEPIAEFRFVPSDKSALEAMFTAMCECQALHPDPEDEDSDDYDGEEYDVEAHEQGQGDIPTFYTYEEGLSHLTAEGQATLERLEGMLSQSVSSQYNMAGVRTEDSTRDYEDGMEVDTTPTVAGQFEDADVDH
notes: ICln, Canis familiaris (cDNA from the MDCK cell line), ORF of full length ICln; NCBI NP_001003288.1; The same construct was used in two cell lines (NIH-3T3 and HEK293 Phoenix); the assays tell them apart; also called CFP-ICln wt; cICln; source: NIH-3T3 fibroblasts or HEK293 Phoenix cells, transiently transfected (pECFP-C1), in cells; not shown: CFP, N-terminal, kept
ratio of the FRET efficiency to that of CFP and αIIbs-YFP [1]: 2.7
ratio of the FRET efficiency to that of CFP and αIIbs-YFP [2]: 2.9

B2: integrin peptide (1018)MWKVGFFKRNR(1028) (peptide)
peptide: MWKVGFFKRNR
notes: integrin αIIb chain, human, residues 1018-1028; numbers count on NCBI NP_000410.2; also called integrin αIIb peptide with the KVGFFKR motif; source: synthetic peptide
binding result [3]: binds
